Measured values as given in patent US20130005646A1 (Novo Nordisk, published 2013).
Starred links: 1 amine or outer side, 2 acyl side, 3 side chain; linkers in the order of their positions; H or OH if unused. Positions of bridges follow the written chain, without caps; N, C: chain ends. Non-standard residues stand in square brackets, D forms with d. *: point of attachment. C20 diacid = O=C(O)CCCCCCCCCCCCCCCCCCC(=O)*; C18 diacid = O=C(O)CCCCCCCCCCCCCCCCC(=O)*; γGlu = O=C(O)[C@H](CCC(=O)[*:2])N[*:1]; Orn = NCCC[C@H](N)C(=O)O; AEEA = NCCOCCOCC(=O)O

T1: human calcitonin (a) receptor (human, UniProt P30988 25-474)
T1 sequence (looked up): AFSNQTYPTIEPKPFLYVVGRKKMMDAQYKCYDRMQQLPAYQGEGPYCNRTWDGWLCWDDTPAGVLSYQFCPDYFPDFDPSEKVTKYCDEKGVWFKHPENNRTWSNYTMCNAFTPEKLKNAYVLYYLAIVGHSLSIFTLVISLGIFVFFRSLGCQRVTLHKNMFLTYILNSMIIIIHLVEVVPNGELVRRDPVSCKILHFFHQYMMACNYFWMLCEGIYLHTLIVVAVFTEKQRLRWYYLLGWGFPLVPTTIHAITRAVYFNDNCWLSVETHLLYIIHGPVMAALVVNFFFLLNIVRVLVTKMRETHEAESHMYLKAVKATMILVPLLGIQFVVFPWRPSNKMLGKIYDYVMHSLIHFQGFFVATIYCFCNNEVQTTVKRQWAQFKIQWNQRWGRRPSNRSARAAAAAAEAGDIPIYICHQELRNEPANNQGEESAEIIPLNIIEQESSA

T2: rat calcitonin (a) receptor (rat, UniProt P32214 25-516)
T2 sequence (looked up): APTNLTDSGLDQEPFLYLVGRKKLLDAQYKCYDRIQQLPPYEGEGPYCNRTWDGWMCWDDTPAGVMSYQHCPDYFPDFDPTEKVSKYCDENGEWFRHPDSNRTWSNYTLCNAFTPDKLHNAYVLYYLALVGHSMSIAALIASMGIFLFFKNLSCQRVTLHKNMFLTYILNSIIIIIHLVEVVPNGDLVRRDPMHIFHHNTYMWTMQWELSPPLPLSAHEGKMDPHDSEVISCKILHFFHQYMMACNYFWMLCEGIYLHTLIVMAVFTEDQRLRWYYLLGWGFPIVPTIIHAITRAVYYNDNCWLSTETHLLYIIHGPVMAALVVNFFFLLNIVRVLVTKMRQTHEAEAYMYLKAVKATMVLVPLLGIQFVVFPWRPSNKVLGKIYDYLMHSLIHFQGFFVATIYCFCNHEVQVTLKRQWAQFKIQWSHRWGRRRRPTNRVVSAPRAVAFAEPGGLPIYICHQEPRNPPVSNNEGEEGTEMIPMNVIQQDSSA

T3: rat amylin 3(a) receptor (rat calcitonin(a) receptor + rat RAMP3) (rat, UniProt P32214 25-516; Q9JJ73 23-147)
T3 sequence (looked up) 1: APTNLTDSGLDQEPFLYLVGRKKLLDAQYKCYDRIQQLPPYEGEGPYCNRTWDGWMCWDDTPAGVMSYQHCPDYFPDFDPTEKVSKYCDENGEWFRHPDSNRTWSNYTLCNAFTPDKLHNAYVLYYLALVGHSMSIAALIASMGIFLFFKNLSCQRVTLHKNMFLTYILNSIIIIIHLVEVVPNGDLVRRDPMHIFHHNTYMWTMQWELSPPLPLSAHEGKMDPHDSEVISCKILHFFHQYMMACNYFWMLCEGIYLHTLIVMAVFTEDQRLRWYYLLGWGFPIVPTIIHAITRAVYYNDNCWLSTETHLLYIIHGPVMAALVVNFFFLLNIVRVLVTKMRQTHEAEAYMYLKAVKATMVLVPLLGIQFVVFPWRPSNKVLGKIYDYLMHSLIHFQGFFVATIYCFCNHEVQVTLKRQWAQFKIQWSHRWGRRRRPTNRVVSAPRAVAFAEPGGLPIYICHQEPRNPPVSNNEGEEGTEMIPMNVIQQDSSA
T3 sequence (looked up) 2: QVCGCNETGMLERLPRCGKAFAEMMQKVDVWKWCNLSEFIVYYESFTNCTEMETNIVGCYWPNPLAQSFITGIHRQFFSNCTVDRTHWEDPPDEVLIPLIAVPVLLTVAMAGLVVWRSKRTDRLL

T4: human amylin 3(a) receptor (human calcitonin receptor + RAMP-3) (human, UniProt P30988 25-474; O60896 24-148)
T4 sequence (looked up) 1: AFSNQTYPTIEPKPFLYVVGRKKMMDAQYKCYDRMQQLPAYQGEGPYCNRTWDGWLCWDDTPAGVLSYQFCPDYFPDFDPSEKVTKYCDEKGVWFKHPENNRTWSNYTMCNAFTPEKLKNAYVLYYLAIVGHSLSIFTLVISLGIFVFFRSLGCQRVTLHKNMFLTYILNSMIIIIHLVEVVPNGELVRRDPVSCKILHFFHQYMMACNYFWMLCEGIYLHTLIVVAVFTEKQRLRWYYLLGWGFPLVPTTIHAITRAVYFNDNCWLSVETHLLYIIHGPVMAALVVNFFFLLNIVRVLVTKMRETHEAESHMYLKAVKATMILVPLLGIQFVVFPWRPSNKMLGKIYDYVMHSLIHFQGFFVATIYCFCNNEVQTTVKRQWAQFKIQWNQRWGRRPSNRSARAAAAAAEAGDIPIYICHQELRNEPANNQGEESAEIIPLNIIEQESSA
T4 sequence (looked up) 2: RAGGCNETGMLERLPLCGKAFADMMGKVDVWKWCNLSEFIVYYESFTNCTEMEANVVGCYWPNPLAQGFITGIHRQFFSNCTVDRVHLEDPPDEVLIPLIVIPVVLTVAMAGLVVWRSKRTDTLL


What was measured:
Assay in all cases: cell-based or functional assay
[1] = molecular target: T1, human calcitonin (a) receptor
[2] = molecular target: T2, rat calcitonin (a) receptor
[3] = molecular target: T3, rat amylin 3(a) receptor (rat …)
[4] = molecular target: T4, human amylin 3(a) receptor (human …)

| CTa receptor human EC50 [1] | CTa receptor rat EC50 [2] | Amylin receptor rat EC50 [3] | Amylin receptor human EC50 [4] | Binder |
| --- | --- | --- | --- | --- |
| 150 pM | 379 pM | 64.5 pM | 93.4 pM | {C20 diacid-γGlu}-HCNTATCATQRLAEFLHRSSNNFGPILPPTNVGSNTY-NH2 (disulfide 2-7; SMILES CC[C@H](C)[C@H](NC(=O)[C@@H]1CCCN1C(=O)CNC(=O)[C@H](Cc1ccccc1)NC(=O)[C@H](CC(N)=O)NC(=O)[C@H](CC(N)=O)NC(=O)[C@H](CO)NC(=O)[C@H](CO)NC(=O)[C@H](CCCNC(=N)N)NC(=O)[C@H](Cc1c[nH]cn1)NC(=O)[C@H](CC(C)C)NC(=O)[C@H](Cc1ccccc1)NC(=O)[C@H](CCC(=O)O)NC(=O)[C@H](C)NC(=O)[C@H](CC(C)C)NC(=O)[C@H](CCCNC(=N)N)NC(=O)[C@H](CCC(N)=O)NC(=O)[C@@H](NC(=O)[C@H](C)NC(=O)[C@@H]1CSSC[C@H](NC(=O)[C@H](Cc2c[nH]cn2)NC(=O)CC[C@H](NC(=O)CCCCCCCCCCCCCCCCCCC(=O)O)C(=O)O)C(=O)N[C@@H](CC(N)=O)C(=O)N[C@@H]([C@@H](C)O)C(=O)N[C@@H](C)C(=O)N[C@@H]([C@@H](C)O)C(=O)N1)[C@@H](C)O)C(=O)N[C@@H](CC(C)C)C(=O)N1CCC[C@H]1C(=O)N1CCC[C@H]1C(=O)N[C@H](C(=O)N[C@@H](CC(N)=O)C(=O)N[C@H](C(=O)NCC(=O)N[C@@H](CO)C(=O)N[C@@H](CC(N)=O)C(=O)N[C@H](C(=O)N[C@@H](Cc1ccc(O)cc1)C(N)=O)[C@@H](C)O)C(C)C)[C@@H](C)O) [N-alpha-[(S)-4-Carboxy-4-(19-carboxynonadecanoylamino)butyryl]-[His1,Glu14,His17,Arg18]-pramlintide] |
| 690 pM | 2570 pM | 33 pM | 29.5 pM | {C18 diacid-γGlu-AEEA-AEEA}-[dR][dR][Orn]CNTATCATQRLAEFLHRSSNNFGPILPPTNVGSNTY-NH2 (disulfide 4-9; SMILES CC[C@H](C)[C@H](NC(=O)[C@@H]1CCCN1C(=O)CNC(=O)[C@H](Cc1ccccc1)NC(=O)[C@H](CC(N)=O)NC(=O)[C@H](CC(N)=O)NC(=O)[C@H](CO)NC(=O)[C@H](CO)NC(=O)[C@H](CCCNC(=N)N)NC(=O)[C@H](Cc1c[nH]cn1)NC(=O)[C@H](CC(C)C)NC(=O)[C@H](Cc1ccccc1)NC(=O)[C@H](CCC(=O)O)NC(=O)[C@H](C)NC(=O)[C@H](CC(C)C)NC(=O)[C@H](CCCNC(=N)N)NC(=O)[C@H](CCC(N)=O)NC(=O)[C@@H](NC(=O)[C@H](C)NC(=O)[C@@H]1CSSC[C@H](NC(=O)[C@H](CCCN)NC(=O)[C@@H](CCCNC(=N)N)NC(=O)[C@@H](CCCNC(=N)N)NC(=O)COCCOCCNC(=O)COCCOCCNC(=O)CC[C@H](NC(=O)CCCCCCCCCCCCCCCCC(=O)O)C(=O)O)C(=O)N[C@@H](CC(N)=O)C(=O)N[C@@H]([C@@H](C)O)C(=O)N[C@@H](C)C(=O)N[C@@H]([C@@H](C)O)C(=O)N1)[C@@H](C)O)C(=O)N[C@@H](CC(C)C)C(=O)N1CCC[C@H]1C(=O)N1CCC[C@H]1C(=O)N[C@H](C(=O)N[C@@H](CC(N)=O)C(=O)N[C@H](C(=O)NCC(=O)N[C@@H](CO)C(=O)N[C@@H](CC(N)=O)C(=O)N[C@H](C(=O)N[C@@H](Cc1ccc(O)cc1)C(N)=O)[C@@H](C)O)C(C)C)[C@@H](C)O) |
| 208 pM | 1730 pM | 330 pM | 212 pM | {C20 diacid-γGlu}-HCNTATCATQRLAEFLHRSSSSFGPILPPTDVGSDTY-NH2 (disulfide 2-7; SMILES CC[C@H](C)[C@H](NC(=O)[C@@H]1CCCN1C(=O)CNC(=O)[C@H](Cc1ccccc1)NC(=O)[C@H](CO)NC(=O)[C@H](CO)NC(=O)[C@H](CO)NC(=O)[C@H](CO)NC(=O)[C@H](CCCNC(=N)N)NC(=O)[C@H](Cc1c[nH]cn1)NC(=O)[C@H](CC(C)C)NC(=O)[C@H](Cc1ccccc1)NC(=O)[C@H](CCC(=O)O)NC(=O)[C@H](C)NC(=O)[C@H](CC(C)C)NC(=O)[C@H](CCCNC(=N)N)NC(=O)[C@H](CCC(N)=O)NC(=O)[C@@H](NC(=O)[C@H](C)NC(=O)[C@@H]1CSSC[C@H](NC(=O)[C@H](Cc2c[nH]cn2)NC(=O)CC[C@H](NC(=O)CCCCCCCCCCCCCCCCCCC(=O)O)C(=O)O)C(=O)N[C@@H](CC(N)=O)C(=O)N[C@@H]([C@@H](C)O)C(=O)N[C@@H](C)C(=O)N[C@@H]([C@@H](C)O)C(=O)N1)[C@@H](C)O)C(=O)N[C@@H](CC(C)C)C(=O)N1CCC[C@H]1C(=O)N1CCC[C@H]1C(=O)N[C@H](C(=O)N[C@@H](CC(=O)O)C(=O)N[C@H](C(=O)NCC(=O)N[C@@H](CO)C(=O)N[C@@H](CC(=O)O)C(=O)N[C@H](C(=O)N[C@@H](Cc1ccc(O)cc1)C(N)=O)[C@@H](C)O)C(C)C)[C@@H](C)O) |
| 86.4 pM | 806 pM | 374 pM | 82.3 pM | {C20 diacid-γGlu}-ECNTATCATQRLAEFLHRSSNNFGPILPPTNVGSNTP-NH2 (disulfide 2-7; SMILES CC[C@H](C)[C@H](NC(=O)[C@@H]1CCCN1C(=O)CNC(=O)[C@H](Cc1ccccc1)NC(=O)[C@H](CC(N)=O)NC(=O)[C@H](CC(N)=O)NC(=O)[C@H](CO)NC(=O)[C@H](CO)NC(=O)[C@H](CCCNC(=N)N)NC(=O)[C@H](Cc1c[nH]cn1)NC(=O)[C@H](CC(C)C)NC(=O)[C@H](Cc1ccccc1)NC(=O)[C@H](CCC(=O)O)NC(=O)[C@H](C)NC(=O)[C@H](CC(C)C)NC(=O)[C@H](CCCNC(=N)N)NC(=O)[C@H](CCC(N)=O)NC(=O)[C@@H](NC(=O)[C@H](C)NC(=O)[C@@H]1CSSC[C@H](NC(=O)[C@H](CCC(=O)O)NC(=O)CC[C@H](NC(=O)CCCCCCCCCCCCCCCCCCC(=O)O)C(=O)O)C(=O)N[C@@H](CC(N)=O)C(=O)N[C@@H]([C@@H](C)O)C(=O)N[C@@H](C)C(=O)N[C@@H]([C@@H](C)O)C(=O)N1)[C@@H](C)O)C(=O)N[C@@H](CC(C)C)C(=O)N1CCC[C@H]1C(=O)N1CCC[C@H]1C(=O)N[C@H](C(=O)N[C@@H](CC(N)=O)C(=O)N[C@H](C(=O)NCC(=O)N[C@@H](CO)C(=O)N[C@@H](CC(N)=O)C(=O)N[C@H](C(=O)N1CCC[C@H]1C(N)=O)[C@@H](C)O)C(C)C)[C@@H](C)O) |
| 208 pM | 962 pM | 88.5 pM | 85.3 pM | {C20 diacid-γGlu}-HHHCNTATCATQRLAEFLHHSSNNFGPILPPTNVGSNTY-NH2 (disulfide 4-9; SMILES CC[C@H](C)[C@H](NC(=O)[C@@H]1CCCN1C(=O)CNC(=O)[C@H](Cc1ccccc1)NC(=O)[C@H](CC(N)=O)NC(=O)[C@H](CC(N)=O)NC(=O)[C@H](CO)NC(=O)[C@H](CO)NC(=O)[C@H](Cc1c[nH]cn1)NC(=O)[C@H](Cc1c[nH]cn1)NC(=O)[C@H](CC(C)C)NC(=O)[C@H](Cc1ccccc1)NC(=O)[C@H](CCC(=O)O)NC(=O)[C@H](C)NC(=O)[C@H](CC(C)C)NC(=O)[C@H](CCCNC(=N)N)NC(=O)[C@H](CCC(N)=O)NC(=O)[C@@H](NC(=O)[C@H](C)NC(=O)[C@@H]1CSSC[C@H](NC(=O)[C@H](Cc2c[nH]cn2)NC(=O)[C@H](Cc2c[nH]cn2)NC(=O)[C@H](Cc2c[nH]cn2)NC(=O)CC[C@H](NC(=O)CCCCCCCCCCCCCCCCCCC(=O)O)C(=O)O)C(=O)N[C@@H](CC(N)=O)C(=O)N[C@@H]([C@@H](C)O)C(=O)N[C@@H](C)C(=O)N[C@@H]([C@@H](C)O)C(=O)N1)[C@@H](C)O)C(=O)N[C@@H](CC(C)C)C(=O)N1CCC[C@H]1C(=O)N1CCC[C@H]1C(=O)N[C@H](C(=O)N[C@@H](CC(N)=O)C(=O)N[C@H](C(=O)NCC(=O)N[C@@H](CO)C(=O)N[C@@H](CC(N)=O)C(=O)N[C@H](C(=O)N[C@@H](Cc1ccc(O)cc1)C(N)=O)[C@@H](C)O)C(C)C)[C@@H](C)O) |
